Article PMC7864943, “Structural elements in the flexible tail of the co-chaperone p23 coordinate client binding and progression of the Hsp90 chaperone cycle” (Nature Communications, 2021)

B1: yeast p23^Δ91 (domain or fragment, UniProt P28707 1-125, looked up)
chain: MSDKVINPQVAWAQRSSTTDPERNYVLITVSIADCDAPELTIKPSYIELKAQSKPHVGDENVHHYQLHIDLYKEIIPEKTMHKVANGQHYFLKLYKKDLESEYWPRLTKEKVKYPYIKTDFDKWV
notes: p23/Sba1, yeast, C-terminal deletion mutant Δ91; source: E. coli BL-21 DE3, purified
B2: yeast p23^Δ88 (domain or fragment, UniProt P28707 1-128, looked up)
chain: MSDKVINPQVAWAQRSSTTDPERNYVLITVSIADCDAPELTIKPSYIELKAQSKPHVGDENVHHYQLHIDLYKEIIPEKTMHKVANGQHYFLKLYKKDLESEYWPRLTKEKVKYPYIKTDFDKWVDED
notes: p23/Sba1, yeast, C-terminal deletion mutant Δ88; source: E. coli BL-21 DE3, purified
B3: human p23 (natural protein, UniProt Q15185 1-160, looked up)
chain: MQPASAKWYDRRDYVFIEFCVEDSKDVNVNFEKSKLTFSCLGGSDNFKHLNEIDLFHCIDPNDSKHKRTDRSILCCLRKGESGQSWPRLTKERAKLNWLSVDFNNWKDWEDDSDEDMSNFDRFSEMMNNMGGDEDVDLPEVDGADDDSQDSDDEKMPDLE
notes: p23, human; helical stretch at residues 117-127 of the tail; 15N-labelled; also called p23 (human); source: E. coli BL-21 DE3, purified (the methods speak of Hsp90 and p23 in general)
B4: yeast p23^W124A (natural protein, UniProt P28707 1-216, looked up)
chain: MSDKVINPQVAWAQRSSTTDPERNYVLITVSIADCDAPELTIKPSYIELKAQSKPHVGDENVHHYQLHIDLYKEIIPEKTMHKVANGQHYFLKLYKKDLESEYWPRLTKEKVKYPYIKTDFDKAVDEDEQDEVEAEGNDAAQGMDFSQMMGGAGGAGGAGGMDFSQMMGGAGGAGSPDMAQLQQLLAQSGGNLDMGDFKENDEEDEEEEIEPEVKA
notes: p23/Sba1, yeast, point mutant of the wild type (aa 1-216); source: E. coli BL-21 DE3, purified

What was measured:
Details in all cases: both partners purified
[1] = molecular target: T1, yeast Hsp90 (Hsp82), full length (yeast, UniProt P02829 1-709); test: ATPase inhibition assay; apparent Ki; ATP-regenerating system, 30 °C; 3 µM yeast Hsp90 (Hsp82) with rising concentrations of p23 or mutants; 40 mM Hepes, 150 mM KCl, 5 mM MgCl2, 1 mM DTT, pH 7.5; 2 mM ATP
T1 construct: Hsp90 (Hsp82), yeast, full-length protein; Isotope-labelled (methyl-labelled, deuterated) in some NMR experiments; also called Hsp90 FL; Hsp90 dimer
T1 sequence (P02829 whole entry): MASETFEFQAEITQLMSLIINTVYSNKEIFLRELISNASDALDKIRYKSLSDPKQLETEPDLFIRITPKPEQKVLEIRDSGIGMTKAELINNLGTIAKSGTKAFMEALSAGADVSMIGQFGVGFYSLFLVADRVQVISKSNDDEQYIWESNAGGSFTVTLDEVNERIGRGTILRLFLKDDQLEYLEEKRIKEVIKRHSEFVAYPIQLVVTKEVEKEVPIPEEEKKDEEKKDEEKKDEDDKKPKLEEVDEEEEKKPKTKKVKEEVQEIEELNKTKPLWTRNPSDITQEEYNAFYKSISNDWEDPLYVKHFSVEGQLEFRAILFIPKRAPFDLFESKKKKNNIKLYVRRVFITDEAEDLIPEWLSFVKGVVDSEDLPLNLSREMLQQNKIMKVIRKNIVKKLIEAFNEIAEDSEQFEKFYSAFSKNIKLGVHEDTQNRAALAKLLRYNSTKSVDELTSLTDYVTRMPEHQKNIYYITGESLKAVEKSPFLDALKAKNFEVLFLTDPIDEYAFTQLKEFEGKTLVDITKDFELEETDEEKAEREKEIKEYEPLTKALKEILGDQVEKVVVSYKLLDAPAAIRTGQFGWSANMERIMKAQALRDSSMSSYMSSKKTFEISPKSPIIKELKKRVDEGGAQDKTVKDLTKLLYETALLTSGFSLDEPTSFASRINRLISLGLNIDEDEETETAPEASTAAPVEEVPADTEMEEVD

[2] = molecular target: T1, yeast Hsp90 (Hsp82), full length; test: ITC; 20 µM Hsp90 in the cell, p23^WT (135 µM) or mutants (up to 360 µM) in the syringe; 2 mM AMP-PNP; 40 mM Hepes, 150 mM KCl, 5 mM MgCl2, 1 mM DTT, pH 7.5; 30 °C
[3] = molecular target: T2, human Hsp90β, full length (human, UniProt P08238 1-724); test: NMR titration; 1H-15N HSQC of 15N-labeled p23 with unlabeled full-length Hsp90/AMP-PNP or GR-LBDm alone; peak intensity ratios; 25 mM Tris, 200 mM NaCl, 5 mM DTT, 0.5 mM dexamethasone, pH 7; 30 °C
T2 construct: also called Hsp90 FL (human); source: E. coli BL-21 DE3, purified (the methods speak of Hsp90 and p23 in general)
T2 sequence (P08238 whole entry): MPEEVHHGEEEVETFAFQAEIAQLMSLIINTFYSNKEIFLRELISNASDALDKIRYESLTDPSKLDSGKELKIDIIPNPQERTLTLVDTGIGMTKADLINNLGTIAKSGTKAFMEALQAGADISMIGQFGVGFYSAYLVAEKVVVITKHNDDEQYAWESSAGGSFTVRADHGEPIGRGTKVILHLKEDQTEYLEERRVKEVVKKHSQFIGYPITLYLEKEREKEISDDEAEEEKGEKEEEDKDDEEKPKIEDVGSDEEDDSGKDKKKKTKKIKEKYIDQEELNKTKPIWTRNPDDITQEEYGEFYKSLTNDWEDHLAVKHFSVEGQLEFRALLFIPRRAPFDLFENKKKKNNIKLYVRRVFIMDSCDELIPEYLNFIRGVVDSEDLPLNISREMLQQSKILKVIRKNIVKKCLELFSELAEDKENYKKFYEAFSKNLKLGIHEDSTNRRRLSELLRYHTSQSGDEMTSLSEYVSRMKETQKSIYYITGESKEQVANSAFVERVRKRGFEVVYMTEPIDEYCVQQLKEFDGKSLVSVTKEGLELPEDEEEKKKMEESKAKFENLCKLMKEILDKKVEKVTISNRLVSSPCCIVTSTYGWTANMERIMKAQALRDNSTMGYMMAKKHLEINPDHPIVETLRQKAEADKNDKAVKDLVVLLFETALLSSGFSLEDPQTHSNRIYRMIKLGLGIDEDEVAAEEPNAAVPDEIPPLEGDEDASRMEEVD

Binder	Ki [1]	Kd [2]	binding result [3]
B1	10.8 µM	–	–
B2	2.2 µM	2.3 µM	–
B3	–	–	binds
B4	2.6 µM	1.3 µM	–
